Assay in all cases: fluorescence polarization
Holding throughout (details): internal 6-carboxyfluorescein in backbone between U12 and C13 (central tetraloop bases); 25 mM MOPS pH 7.4, 150 mM KCl, 2 mM DTT, 2 mM MgCl2, 0.01% Triton X-100, 1 nM RNA, room temperature, 1 h
(Fluorescence polarisation rises when a labelled molecule tumbles more slowly, as on binding a larger partner.)

For series [1], the target named is T1, RIG-I K788A/R791A K788A;R791A (Homo sapiens) (UniProt O95786).
T1 sequence: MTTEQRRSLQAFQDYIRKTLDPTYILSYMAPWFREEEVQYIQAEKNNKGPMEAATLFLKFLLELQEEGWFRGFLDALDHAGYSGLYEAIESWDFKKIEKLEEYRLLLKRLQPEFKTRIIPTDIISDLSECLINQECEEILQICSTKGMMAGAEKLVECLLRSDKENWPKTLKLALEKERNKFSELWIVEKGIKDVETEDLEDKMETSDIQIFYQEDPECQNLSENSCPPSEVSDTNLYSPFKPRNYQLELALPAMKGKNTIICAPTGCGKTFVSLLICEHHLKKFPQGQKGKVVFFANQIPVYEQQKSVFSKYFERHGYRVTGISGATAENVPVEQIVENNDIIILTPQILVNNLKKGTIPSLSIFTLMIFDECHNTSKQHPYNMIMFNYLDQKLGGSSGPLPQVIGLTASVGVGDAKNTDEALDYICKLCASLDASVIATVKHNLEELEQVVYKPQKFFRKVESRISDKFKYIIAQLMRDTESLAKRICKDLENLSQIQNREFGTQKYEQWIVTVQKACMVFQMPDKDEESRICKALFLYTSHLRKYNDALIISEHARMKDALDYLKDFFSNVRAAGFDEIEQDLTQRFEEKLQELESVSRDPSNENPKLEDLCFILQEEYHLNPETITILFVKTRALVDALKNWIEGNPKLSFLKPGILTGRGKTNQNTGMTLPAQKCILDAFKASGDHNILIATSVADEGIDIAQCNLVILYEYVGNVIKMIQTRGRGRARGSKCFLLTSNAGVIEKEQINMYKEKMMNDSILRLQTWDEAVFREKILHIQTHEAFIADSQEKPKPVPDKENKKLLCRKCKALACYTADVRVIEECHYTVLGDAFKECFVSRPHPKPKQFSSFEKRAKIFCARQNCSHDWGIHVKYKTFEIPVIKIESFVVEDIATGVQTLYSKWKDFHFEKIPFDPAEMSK

In series [2] the target is T2, RIG-I R791A R791A (Homo sapiens) (UniProt O95786).
T2 sequence: T1 sequence with A788K

In series [3] the target is T3, RIG-I Q784A/K788A Q784A;K788A (Homo sapiens) (UniProt O95786).
T3 sequence: T1 sequence with Q784A, A791R

Positions count from the first letter of the chain named.

The term Kd denotes a measure of binding affinity in units of concentration. Lower therefore signals a tighter complex. As to GGACGUACGUUUCGACGUACGUCC [5'OH10L-F], the Kd in series [1] was determined as 166 nM; in series [2] it was 50.7 nM; in series [3], 85.8 nM.

These data come from publication PMC4191399.
